Assay results: patent publication US7935343B2 (MedImmune Limited, dated 2011)
Where a chain is given by its changes, count along the chain named. Blank lines part the entries; values can stand above or below the binder they belong to.

Columns and labels:
murine IL-13 = target: T1, murine IL-13 (murine); experiment: BIAcore, IgG4 coupled to the chip, IL-13 in flow
T1 chain: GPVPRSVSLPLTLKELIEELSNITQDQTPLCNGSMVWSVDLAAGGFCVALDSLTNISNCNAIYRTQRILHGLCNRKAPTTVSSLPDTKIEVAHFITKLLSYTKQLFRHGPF

human IL-13 [1] = target: human IL-13 (human); experiment: BIAcore, IgG coupled to the chip, IL-13 in flow
human IL-13 [2] = target: human IL-13 (human); experiment: cell-based or functional assay
[3] = target: native human IL-13 released from HDLM-2 cells (human); experiment: cell-based or functional assay
human IL-13 [4] = target: human IL-13 (human); experiment: BIAcore, IgG4 coupled to the chip, IL-13 in flow
human IL-13 [5] = target: human IL-13 (human); experiment: cell-based or functional assay; remark: listed apart in the source

Sequence of human IL-13 (human) (chain, as listed by the source): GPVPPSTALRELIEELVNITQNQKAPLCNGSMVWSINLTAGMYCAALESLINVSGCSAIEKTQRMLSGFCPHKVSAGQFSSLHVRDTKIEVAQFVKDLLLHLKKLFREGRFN
Sequence of native human IL-13 released from HDLM-2 cells (human) (chain, as listed by the source): as above

Kd (murine IL-13): 5.1 nM
koff (murine IL-13): 0.0198 s⁻¹
kon (murine IL-13): 3.9e+06 M⁻¹ s⁻¹
B1: BAK209B11 human IgG4 (antibody, V domains shown)
VH: VQLQESGGGGLVQPGGSLRLSCAASGFTFSSYGMSWVRQAPGKGLEWVSSISASGDSTFYADSVKGRFTISRDNNKNMVFLQVNSLRADDTAVYFCAKDWSQWLVGDAFDVWGRGTTVTVSS
VL: DIQLTQSPSTLSASVGDRVTITCRASQSVSLWVAWYQQRPGKAPKLLIYDGSTLQSGVPARFSGSGSGTEFTLTISSLQPDDFATYYCQQYKTFSTFGQGTKVEIKR

Kd (human IL-13 [1]): 13.5 nM
koff (human IL-13 [1]): 0.00741 s⁻¹
kon (human IL-13 [1]): 549000 M⁻¹ s⁻¹
B2: BAK278D6 IgG (antibody, V domains shown)
VH: EVQLVQSGAEVKKPGASVKVSCKASGYTFRNYGLSWVRQAPGQGLEWMGWISANNGDTNYGQEFQGRITMTTETSTNTAHMELRSLRSDDTAVYYCVRDSSSNWARWFFDLWGKGTMVTVSS
VL: SYVLTQPPSVSVAPGQTARIPCGGNNIGSKLVHWYQQKPGQAPVLVVYDDGDRPSGIPERFSGSNSGNTATLTISRIDAGDEADYYCQVWDTGSDPVVFGGGTKLTVL

IC50, TF-1 proliferation (Mean TF1) (human IL-13 [2]): 0.2 nM
B3: BAK1183H4 scFv (scFv, V domains shown)
VH: QVQLVQSGAEVKKPGASVKVSCKASGYTFTNYGLSWVRQAPGQGLEWMGWINYDGGNTQYGQEFQGRVTMTTDTSTSTAYMELRSLRSDDTAVYYCARDSSSSWARWFFDLWGRGTLVTVSS
VL: B2 VL with Q16K, P21T, N26I, V47I, I77V, D78E

IC50, HDLM-2 cell proliferation [3]: 3.5 nM
Kd (human IL-13 [4]): 0.081 nM
B4: BAK1183H4 IgG4 (antibody, V domains shown)
VH: B3 VH
VL: B2 VL with Q16K, P21T, N26I, V47I, I77V, D78E

IC50, HDLM-2 cell proliferation [3]: 1.1 nM
Kd (human IL-13 [4]): 0.136 nM
B5: BAK1167F2 IgG4 (antibody, V domains shown)
VH: B3 VH with T30E, N31Q, Y32T, L34V, N52S, Y53A, D54N, G55N, N57D, Q59N
VL: B2 VL with Q16K, P21T, N26I, V47I, I77V, D78E

IC50, TF-1 proliferation (Mean TF1) (human IL-13 [2]): 0.2 nM
B6: BAK1167F2 scFv (scFv, V domains shown)
VH: B3 VH with T30E, N31Q, Y32T, L34V, N52S, Y53A, D54N, G55N, N57D, Q59N
VL: B2 VL with Q16K, P21T, N26I, V47I, I77V, D78E

IC50, TF-1 proliferation (Mean TF1) (human IL-13 [2]): 8 nM
B7: BAK502G9 scFv (scFv, V domains shown)
VH: B3 VH with N52S, Y53A, D54N, G55N, N57D, Q59N
VL: B2 VL with Q16K, P21T, N26I, V47I, I77V, D78E

IC50, HDLM-2 cell proliferation [3]: 4.6 nM
B8: BAK502G9 IgG4 (antibody, V domains shown)
VH: B3 VH with N52S, Y53A, D54N, G55N, N57D, Q59N
VL: B2 VL with Q16K, P21T, N26I, V47I, I77V, D78E

IC50, TF-1 cell proliferation (human IL-13 [5]): 3 nM
B9: BAK615E3 scFv (scFv, V domains shown)
VH: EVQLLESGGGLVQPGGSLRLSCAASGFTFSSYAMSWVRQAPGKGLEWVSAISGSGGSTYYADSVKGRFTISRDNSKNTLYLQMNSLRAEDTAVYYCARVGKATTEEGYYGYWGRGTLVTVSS
VL: NFMLTQPHSVSESPGKTVTISCTRSSGSIASNYVQWYQQRPGSAPTTVIYDDNQRPSGVPDRFSGSIDSSSNSASLTISGLKTEDEADYYCQSYDSNNDVFGGGTKVTVL
